In patent publication US20120316071A1 (published 2012):

How the values were obtained:
[1] = target: T1, Recombinant Human DLL4 (delta-like protein 4) (human, UniProt Q9NR61 27-529); experiment: ELISA on coated DLL4, 100 nM Fab
T1 construct: Bought recombinant human DLL4 (R&D Systems Cat#1506-D4/CF), coated on the plate; also called rHuman DLL4; Delta-like 4

[2] = target: T1, Recombinant Human DLL4 (delta-like …); experiment: 96-well plate ECL (MSD) binding assay on coated DLL4, 10 nM Fab

B1: Fab VH1-46_IGHD6-6*01_IGHJ1*01 S102A/S103P/S104F/H111F/I51S/N52L/S54T/G56H (APFF SLTH) & L6_IGKJ1*01 (Fab, V domains shown)
VH: QVQLVQSGAEVKKPGASVKVSCKASGYTFTSYYMHWVRQAPGQGLEWMGISLPTGHSTSYAQKFQGRVTMTRDTSTSTVYMELSSLRSEDTAVYYCAREEYAPFSAEYFQFWGQGTLVTVSS
VL: not shown
notes: Fab made in E. coli; CH1 with tags and kappa CL are not included
ELISA signal [1]: 0.786 | ECL signal [2]: 135000
